In paper PMC6269214 (Biochimica et biophysica acta. Proteins and proteomics, 2018):

Assays:
SEC = molecular target: the molecule itself; test: SEC
SEC-MALS = molecular target: the molecule itself; test: SEC-MALS

B1: cavsol (full-length, soluble human caveolin-1 variant gen-2d) (other)
chain: MSGGKYVDSEGHLYTVPIREQGNIYKPNNKAMADELSEKQVYDAHTKEIDLVNRDPKHLNDDVVKIDFEDVIAEPEGTHSFDGIWKASFTTFTVTKYWFYRLLSAHEGIPMALSRGVEVAQVSDHHIRADDPCIKSFLIEIQCISRVYSIYVHTVCDPLFEAVGKIFSNVRINLQKEI
SEC
  stoichiometry N: 24 monomers
SEC-MALS
  stoichiometry N: ~90 cav monomers
